Experimental data reported in the supplement of paper PMC9170038.

System: MS2 coat protein
Assay: apparent KD of MS2 coat protein; designed switch direction (-1 OFF switch, 1 ON switch): 1; higher = weaker reporter binding
Procedure, shortened: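 An oligonucleotide input, 200 uM small-molecule ligand, or no input was present during titration of SNAP-549-labelled MS2 coat protein, which was doubled from 0.7 or 1.5 nM to 3 µM. Designed RNA switches had been transcribed on Illumina chips by stalled E. coli RNA polymerase. Apparent KD per design is the median over clusters of curves fitted to normalised cluster fluorescence.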

[1] = input ligand: microRNA oligo, concentration not stated
[2] = Eterna round: R95, input ligand: FMN 200 uM
[3] = Eterna round: R95, input ligand: microRNA oligo, concentration not stated
[4] = Eterna round: R95, input ligand: none

Sequence | apparent KD of MS2 coat protein (input ligand: FMN 200 uM) | apparent KD of MS2 coat protein [1] | apparent KD of MS2 coat protein (input ligand: none) | apparent KD of MS2 coat protein [2] | apparent KD of MS2 coat protein [3] | apparent KD of MS2 coat protein [4]
GGAGCCAAGGCAGGAUAUUCAUAUUAAAUACAUGAGGAUCACCCAUGUUAGGCCAGAAGGCCUUGGGAGAAGGGCCAUGGCUCG [Xeonanis - 13 mod20] (Eterna round: R96, puzzle: Same State NG 2) | 17 nM | 34.1 nM | 52.5 nM |  |  | 
AUUAUCAAUGCAGGAUAUGAUUAACAUGAGGAUCACCCAUGUGGUGUUGUGAGUAAGGAGAGUGAUCAGAAGGGCAUUUUUUUU [JMF's solution 26] (Eterna round: R96, puzzle: Same State NG 2) | 575 nM | 261 nM | 475 nM |  |  | 
AAAAGACAUGAGGAUCACCCAUGUAACGGUCGUCAAGGAUAUGCAUAGGUCCAUUGACCAGCAGAAGGUGAUACCU [Xeanlarace] (puzzle: Same State 1) |  |  |  | 400 nM | 56.6 nM | 38.3 nM
GGAUGACGGACAGGAUAUUGAUUCUAAUGGUUUCAAGAAGGGUCUUCGAUAUAAACGACCAGUUACAUGAGGAUCACCCAUGUU [JR_SSNG1_Sub033] (Eterna round: R96, puzzle: Same State NG 1) | 25.9 nM | 66 nM | 45 nM |  |  | 
GUAAAACAUGAGGAUCACCCAUGUAAUAAUAUGGGAGGAUAUGCGAAUUUAAUUAUUUAAGCAGAAGGCCUAAAUG [Mat - Same State 1 - D99] (puzzle: Same State 1) |  |  |  | 21.2 nM | 172 nM | 149 nM
UACAAUCUAUCUGAGGAUAUCAUGAACAAAACAUGAGGAUCACCCAUGUGCAGGAAAACUGCAUAUGAGAAGGCAGAUAGAUUGU [Mat - Same State 2 - Mod - D22] (puzzle: Same State 2) |  |  |  | 51 nM | 1560 nM | 876 nM
UUGAAGAAUUAAGGAUAUCGAGUACAUAUGUUUAACAUGAGGAUCACCCAUGUGGGUUGCGGUAUCGAGAAGGUAAAUUACAAG [JL SSNG2 1.43] (Eterna round: R96, puzzle: Same State NG 2) | 45.3 nM | 32 nM | 53.9 nM |  |  | 
AGCUAUCGCGUACGAUAGCUGAAGCAUGUACAUGAGGAUCACCCAUGUCAUGUACAAGCUUUUUGCUCGUCUUAUUG [JL-shm-2.26 JL mod] (puzzle: Sensor for hsa-mir-208a) |  |  |  | 341 nM | 14.2 nM | 347 nM
CCUGCGAUAAGCGAGCGAACAUGAGGAUCACCCAUGUGGCGGCAGGAUAUGGGUGACCCAGCGACUCAGAAGGGCCGAAGCUAA [Eternabot solution 8] (Eterna round: R96, puzzle: Same State NG 3) | 49.1 nM | 11.9 nM | 23.2 nM |  |  | 
GUUAGGAAUCUAGCAAACAUGAGGAUCACCCAUGUUAGUGGGAAGGAUAUGGUACAGAAACUGUACCAGAAGGUCUUAUUGUUU [Omei SS(NG) 3 AV9] (Eterna round: R96, puzzle: Same State NG 3) | 580 nM | 403 nM | 439 nM |  |  | 
AGACAUGAGGAUCACCCAUGUAUACACUGUAUCAGUGUAACAUAGGAUAUCCACCGCCAUGCUGUGGAGAAGGAUGAAACGGGC [Matearen] (Eterna round: R96, puzzle: Same State NG 3) | 175 nM | 111 nM | 99.5 nM |  |  | 
GUGGAGGGUUGAGGAUAUUGAUUACAUAUGUUUAACAUGAGGAUCACCCAUGUGGGUUGCGGUUUCGAGAAGGUAGGUUGCUGG [salish99_SSNG2_r04_041] (Eterna round: R96, puzzle: Same State NG 2) | 196 nM | 79.5 nM | 132 nM |  |  | 
AACAGUCGGCGAGGAUAUGGACGUACGGACUAACCCGCGCGGCUCACAUGAGGAUCACCCAUGUUCUAGAAGGCGCCACUGAAA [Xeorendi] (Eterna round: R96, puzzle: Same State NG 2) | 13.8 nM | 45.3 nM | 50.9 nM |  |  | 
CGGAAACGAUGAGGAUAUGCAGAGGAUCACCCUGUAGAAGGCAAGAGAUGAGGAUAUGCAGAGGAUCACCCUGUAGAAGGCAAC [pwkr ssNG DX.4] (Eterna round: R96, puzzle: Same State NG 1) | 146 nM | 56.5 nM | 84.9 nM |  |  | 
GGUCCAGCGAGAGCUGGACAAAAGCAUGUACAUGAGGAUCACCCAUGUCAUGUACAAGCUUUUUGCUCGUCUUAAAA [Mat - Sensor - JL mod - D88] (Eterna round: R96, puzzle: Sensor for hsa-mir-208a) | 556 nM | 12.9 nM | 486 nM |  |  | 
CAAUAAUGUGGAGGAUAUGGGAGGUCAACACAUGAGGAUCACCCAUGUAGAUAGUGAGGCCAAGCCUAGAAGGCCACAAUCAGC [Eternabot solution 20] (Eterna round: R96, puzzle: Same State NG 2) | 12.6 nM | 65.5 nM | 95.9 nM |  |  | 
AGGGAGGAUGCAGGAUAUAUAAGACAUGAGGAUCACCCAUGUACCUCGUGGAGAAGAAAGGAGAGAUAGAAGGGUAGAGAGGAA [Default title] (Eterna round: R96, puzzle: Same State NG 2) | 314 nM | 288 nM | 255 nM |  |  | 
UGAAUAGUGAUAGGAUAUACAUGAGGAAUCCUCGUAGAAGGAUCAUAACAUGAGGAUCACCCAUGUAGCCGUCCGUAGACGGCA [Mat - Same State NG 1 - JL mod - D56] (Eterna round: R96, puzzle: Same State NG 1) | 336 nM | 64 nM | 117 nM |  |  | 
AAUUAAGAUCAAGGAUAUCACGUCGAUUAGACGUGAGAAGGUGAUCAUAACAUGAGGAUCACCCAUGUAUUACAUGAAUUAAUU [SSNG1/2-B2] (Eterna round: R96, puzzle: Same State NG 1) | 85.7 nM | 330 nM | 397 nM |  |  | 
AACAAUCUAUCUGAGGAUAUCAUGAAAUAAACAUGAGGAUCACCCAUGUGCAGUAAAACUGCAUAUGAGAAGGCAGAUAGAUUGA [salish99_ss2_r3_039] (puzzle: Same State 2) |  |  |  | 93.3 nM | 1850 nM | 1820 nM
